Drawing on PMC5663709, this text covers EC50 for 4 substances.

Test [1] deals with recombinant hemagglutinin (HA) trimer of H3N2 A/Wisconsin/67/2005, ectodomain (influenza A virus A/Wisconsin/67/2005 (H3N2)). As to the kind of experiment: ELISA. On the technique in general: In an ELISA, binding on a coated surface is turned into a signal by an enzyme label.
Test [2] concerns the target cell surface-expressed H3N2 WN/05 HA trimer (influenza A virus A/Wisconsin/67/2005 (H3N2)). As to the kind of experiment: FACS. In general terms: A flow cytometer gives signals particle by particle.
The target in test [3] is recombinant hemagglutinin (HA) trimer of H5N1 A/Vietnam/1203/2004, ectodomain (influenza A virus A/Vietnam/1203/2004 (H5N1)) (UniProt Q6DQ33). As to the kind of experiment: ELISA.
In test [4] the target is recombinant hemagglutinin (HA) trimer of H1N1 A/California/07/2009, ectodomain (influenza A virus A/California/07/2009 (H1N1)) (UniProt C3W5X2). As to the kind of experiment: ELISA.
In test [5] the target is recombinant hemagglutinin (HA) trimer of H7N9 A/Anhui/1-BALF_RG17/2013, ectodomain (influenza A virus A/Anhui/1-BALF_RG17/2013 (H7N9)). As to the kind of experiment: ELISA.

The EC50 is the concentration needed to bring the measured effect to its halfway point. With C05, the EC50 in test [1] is 0.00844 mg/L; in test [2], 0.13 mg/L.

For the substance CR8020, the results for the EC50 in test [1] and in test [2] were 0.0194 mg/L and 0.569 mg/L, respectively.

With F10, the values for the EC50 in test [3] and in test [4] were 0.021 mg/L and 0.0122 mg/L, respectively.

Take FI6V3: the EC50 was found to be 0.0789 mg/L in test [1]; 0.00648 mg/L in test [3]; 0.314 mg/L in test [5]; 0.0107 mg/L in test [4]; 0.065 mg/L in test [2].
